In US20140178935A1 (AVEO PHARMACEUTICALS, published 2014):

What was measured:
[1] = molecular target: T1, recombinant human HGF (R&D Systems, Catalog No. 294-HGN-025) (human, UniProt P14210 32-728); test: cell-based or functional assay
[2] = molecular target: T1, recombinant human HGF (R&D Systems, …); test: cell-based or functional assay; remark: listed apart in the source
[3] = molecular target: T1, recombinant human HGF (R&D Systems, …); test: SPR, antibody captured by anti-mouse Ig, HGF injected, 25 C
Protocol: Rabbit anti-mouse immunoglobulins (BIAcore, Catalog No. BR-1005-14) were immobilized on carboxymethylated dextran CM5 sensor chips (BIAcore, Catalog No. BR-1006-68) by amine coupling (BIAcore, Catalog No. BR-1000-50) using a standard coupling protocol according to manufacturer's instructions. The analyses were performed at 25° C. using PBS (GIBCO, Catalog No. 14040-133) containing 0.05% surfactant P20 (BIAcore, Catalog No. BR-1000-54), 2 mg/mL BSA (EMD, Catalog No. 2930), and 10 mg/mL CM-Dextran Sodium salt (Fluka, Catalog No. 86524) as running buffer.
The antibodies were captured in an individual flow cell at a flow rate of 10 μL/min. Injection time was variable for each antibody to yield approximately 20 RU of antibody captured for each cycle. […] The dissociation phase was monitored for 15 or 90 minutes, depending on concentration. The surface then was regenerated with 10 mM Glycine-HCl, pH 1.7 (BIAcore, Catalog No. BR-1003-54) injected for 3 minutes at a flow rate of 60 μL/min before another cycle was initiated.
Kinetic parameters were determined using the kinetic function of the BIAevalutation software with reference subtraction.

[4] = molecular target: T1, recombinant human HGF (R&D Systems, …); test: competition ELISA (DELFIA): antibody inhibits c-Met binding to plate-coated HGF
Protocol: The plates then were blocked with 200 μL of 5% non-fat dry milk in PBS for 1 hour at room temperature. […] 100 μL of sample per well was transferred to the assay plate and incubated overnight at 4° C.
The resulting plates then were washed three times with PBS-0.1% Tween 20, and incubated for 1 hour at room temperature with Eu-labeled Streptavidin (Wallac, Catalog No. 1244-360) diluted 1:1000 in DELFIA assay buffer (Wallac, Catalog No. 4002-0010). The resulting plates were washed 3 times with DELFIA wash solution (Wallac, Catalog No. 4010-0010) and incubated with 100 μL/well DELFIA enhancement solution (Wallac #4001-0010) for 15 minutes at room temperature with agitation.
The plates were read on Victor³V instrument (Perkin Elmer) using the Europium method.

T1 sequence (P14210 32-728 limits assumed): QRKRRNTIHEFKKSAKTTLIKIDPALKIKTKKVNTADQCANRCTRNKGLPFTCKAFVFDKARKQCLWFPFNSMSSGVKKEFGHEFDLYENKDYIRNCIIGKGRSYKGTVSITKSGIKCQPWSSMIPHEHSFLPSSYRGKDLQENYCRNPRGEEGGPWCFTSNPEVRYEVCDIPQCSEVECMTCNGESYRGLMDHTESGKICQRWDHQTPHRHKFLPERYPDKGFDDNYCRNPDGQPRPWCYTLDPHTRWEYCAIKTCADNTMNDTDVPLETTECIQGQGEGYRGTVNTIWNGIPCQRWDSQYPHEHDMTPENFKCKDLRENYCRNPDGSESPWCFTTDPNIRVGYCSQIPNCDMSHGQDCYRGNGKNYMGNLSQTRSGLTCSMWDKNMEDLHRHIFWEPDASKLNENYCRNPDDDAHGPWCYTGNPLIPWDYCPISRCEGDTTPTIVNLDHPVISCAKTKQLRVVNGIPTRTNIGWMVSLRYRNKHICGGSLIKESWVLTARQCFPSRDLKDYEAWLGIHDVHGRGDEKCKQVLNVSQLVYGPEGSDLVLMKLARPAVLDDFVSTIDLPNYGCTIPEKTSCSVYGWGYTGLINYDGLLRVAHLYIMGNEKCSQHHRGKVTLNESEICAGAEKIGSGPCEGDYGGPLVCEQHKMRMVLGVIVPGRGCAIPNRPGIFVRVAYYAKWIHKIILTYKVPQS

B1: anti-hHGF monoclonal antibody 2B8 (antibody, mouse IgG1, kappa)
heavy: QVQLQQPGAELVKPGTSVKLSCKASGYTFTTYWMHWVNQRPGQGLEWIGEINPTNGHTNYNEKFKSKATLTVDKSSSTAYMQLSSLTSEDSAVYYCARNYVGSIFDYWGQGTTLTVSSAKTTPPSVYPLAPGSAAQTNSMVTLGCLVKGYFPEPVTVTWNSGSLSSGVHTFPAVLQSDLYTLSSSVTVPSSTWPSETVTCNVAHPASSTKVDKKIVPRDCGCKPCICTVPEVSSVFIFPPKPKDVLTITLTPKVTCVVVDISKDDPEVQFSWFVDDVEVHTAQTQPREEQFNSTFRSVSELPIMHQDWLNGKEFKCRVNSAAFPAPIEKTISKTKGRPKAPQVYTIPPPKEQMAKDKVSLTCMITDFFPEDITVEWQWNGQPAENYKNTQPIMDTDGSYFVYSKLNVQKSNWEAGNTFTCSVLHEGLHNHHTEKSLSHSPGK
light: NIVMTQSPKSMSMSVGERVTLSCKASENVVSYVSWYQQKPAQSPKLLIYGASNRNTGVPDRFTGSGSATDFTLTISSVRAEDLADYHCGQSYNYPYTFGGGTRLEIKRADAAPTVSIFPPSSEQLTSGGASVVCFLNNFYPKDINVKWKIDGSERQNGVLNSWTDQDSKDSTYSMSSTLTLTKDEYERHNSYTCEATHKTSTSPIVKSFNRNEC
notes: Murine IgG1 kappa from hybridoma; also called murine 2B8; mouse 2B8
[1]
  IC50, neutralization of HGF stimulated BrdU incorporation in 4 MBr-5 cells: 1.41 nM
[2]
  EC50, inhibition of HGF-stimulated c-Met phosphorylation in PC-3 cells, Average of Two Trials: 0.287 nM
[3]
  Kd: 0.0135 nM
  koff: 2.1e-05 s⁻¹
  kon: 1.6e+06 M⁻¹ s⁻¹
[4]
  IC50: 5.57 nM
